Like-named read-outs stand apart in the source and are kept apart here.
Columns and labels:
human Sirpα-V2-his = human Sirpα-V2-his (human); assay: ELISA
Protocol: (§1) Different antigens (recombinant proteins) such as the human Sirpα-V1-hFc, Sirpα-V1-his, Sirpα-V2-his, Sirpβ-his, Sirpγ-his, monkey Sirpα-his (cynoSirpα-his) or NOD-mSirpα-his described in Example 1 were diluted with a PBS buffer at pH7.4 to concentrations of 1 μg/mL, 2 μg/mL or 5 μg/mL, added into a 96-well ELISA plate (Corning, CLS3590-100EA) at a volume of 50 μL/well, and placed in an incubator at 37° C. for 2 hours. After the liquid was discarded, the wells were added with a blocking solution of 5% skimmed milk (skimmed milk powder available from Bright Dairy) diluted with PBS at 230 μL/well, and incubated in an incubator at 37° C. for 3 hours, or placed overnight at 4° C. (for 16-18 hours) for blocking. The blocking solution was discarded, and the plate was washed with a PBST buffer (pH7.4 PBS containing 0.05% Tween-20) for 5 times, then added with 50 μL/well of the supernatant (containing a detection antibody) or 10 μg/mL of the starting 5-fold gradient dilution of the antibody to be tested, and incubated at 37° C. for 1 hour. […] The plated was washed with PBST for 5 times, then added with 50 μL/well of TMB chromogenic substrate (KPL, Cat #: 52-00-03), incubated at room temperature for 10-15 min, added with 50 μL/well of 1 M H₂SO₄ to stop the reaction, and read by a […] Go microplate reader (ThermoFisher, Cat #: 51119200) for the absorbance value at 450 nm, and then a clone with high binding activity was selected or a EC₅₀ value was calculated according to the OD value.

Cyno Sirpα L932 = molecular target: T1, Cyno Sirpα L932 (cynomolgus); assay: ELISA
T1 chain: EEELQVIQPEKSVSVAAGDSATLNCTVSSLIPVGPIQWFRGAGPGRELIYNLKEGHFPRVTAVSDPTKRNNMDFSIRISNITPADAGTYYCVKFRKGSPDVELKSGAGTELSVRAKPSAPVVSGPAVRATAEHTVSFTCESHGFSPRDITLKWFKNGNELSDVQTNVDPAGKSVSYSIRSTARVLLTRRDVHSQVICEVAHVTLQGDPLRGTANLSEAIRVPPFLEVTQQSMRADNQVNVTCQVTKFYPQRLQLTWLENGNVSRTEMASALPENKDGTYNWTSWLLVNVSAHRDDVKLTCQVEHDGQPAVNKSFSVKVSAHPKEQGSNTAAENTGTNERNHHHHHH
Protocol: as §1

Cyno Sirpα L939 = molecular target: T2, Cyno Sirpα L939 (cynomolgus, limits assumed); assay: ELISA
T2 construct: also called RB6-2; Cyno Sirpα polymorphism 6 (L939)
T2 chain: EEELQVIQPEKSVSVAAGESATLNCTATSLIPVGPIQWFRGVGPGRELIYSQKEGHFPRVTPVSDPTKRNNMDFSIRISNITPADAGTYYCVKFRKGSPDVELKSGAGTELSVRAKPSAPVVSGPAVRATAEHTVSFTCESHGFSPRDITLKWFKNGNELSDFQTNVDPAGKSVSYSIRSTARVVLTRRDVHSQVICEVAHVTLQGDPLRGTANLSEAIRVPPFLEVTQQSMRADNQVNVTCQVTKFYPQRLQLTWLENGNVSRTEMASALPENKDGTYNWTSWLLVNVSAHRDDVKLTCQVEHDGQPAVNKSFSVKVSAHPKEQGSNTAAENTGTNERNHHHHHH
Protocol: as §1

human Sirpα-V1-hFc = molecular target: T3, human Sirpα-V1-hFc (human, UniProt P78324 31-373); assay: blocking ELISA, competitor CD47-his
T3 construct: range 31-373; also called hSirpα (dimer); hSirpα-V1-hFc (dimer); not shown: human IgG1 Fc region at the C-terminus
Protocol: (§2) The recombinant proteins such as human Sirpα-V1-hFc/Sirpα-V1-his were diluted to concentrations of 5 μg/mL or 2 μg/mL respectively with a PBS buffer at pH 7.4, and then added into a 96-well ELISA plate (Corning, CLS3590-100EA) at a volume of 50 μL/well, and placed in an incubator at 37° C. for 2 hours. After the liquid was discarded, the wells were added with a blocking solution of 5% skimmed milk (skimmed milk powder available from Bright Dairy) diluted with PBS at 230 μL/well, and incubated in an incubator at 37° C. for 3 hours, or placed overnight at 4° C. (for 16-18 hours) for blocking. […] The plate was washed for 5 times, added with 50 μL/well of streptavidin-HRP (GenScript, M00091) or anti-his-HRP secondary antibody (GenScript, A00612) diluted at 1:1000, incubated at 37° C. for 1 hour, and then washed with PBST for 5 times. Each well was added with 50 μL of TMB (Surmodic, Cat #: TTMB-1000-01) for color development, and added with 50 μL/well of 1 M H₂SO₄ to stop the reaction. The readings on a microplate reader (MultiskanGO Thermo, Model 51119200) were subjected to data analysis by GraphPad prism 5.

human Sirpα-V1-his [1] = molecular target: T4, human Sirpα-V1-his (human, UniProt P78324 31-373); assay: blocking ELISA, competitor CD47-hFc
T4 construct: range 31-373; Bought (Sino Biological 11612-H08H) or expressed in-house; also called hSirpα-V1; hSirpα-V1-his
Protocol: as §2

human Sirpα-V1-his [2] = molecular target: T4, human Sirpα-V1-his; assay: blocking ELISA, competitor CD47-hFc; remark: listed apart in the source
Protocol: The antigens PD-1 and Sirpα expressed according to the method of Example 1 were diluted with a PBS buffer at pH7.4 to a concentration of 2 μg/mL, added into a 96-well ELISA plate (Corning, CLS3590-100EA) at a volume of 50 μL/well, and incubated at 37° C. for 2 hours. After the liquid was discarded, the wells were added with a blocking solution of 5% skimmed milk (Sangon Biotech (Shanghai) Co., Ltd., A600669-0250) formulated with PBS at 200 μL/well, and incubated at 37° C. for 3 hours for blocking. […] The plate was washed with PBST for 5 times, added with 50 μL/well of HRP-labeled secondary antibody (GenScript Biotechnology Co., Ltd., M00091) diluted at 1:1000, and incubated at 37° C. for 1 hour. The plated was washed with PBST for 5 times, then added with 50 μl/well of TMB chromogenic substrate (KPL, 52-00-03), incubated at room temperature for 5-10 min, added with 50 μl/well of 1 M H₂SO₄ to stop the reaction, and read by a […] Go microplate reader (ThermoFisher, 51119200) for the absorbance value at 450 nm, and then IC₅₀ was calculated according to the OD value.

human Sirpα-V2-his (human), sequence (chain, as listed by the source): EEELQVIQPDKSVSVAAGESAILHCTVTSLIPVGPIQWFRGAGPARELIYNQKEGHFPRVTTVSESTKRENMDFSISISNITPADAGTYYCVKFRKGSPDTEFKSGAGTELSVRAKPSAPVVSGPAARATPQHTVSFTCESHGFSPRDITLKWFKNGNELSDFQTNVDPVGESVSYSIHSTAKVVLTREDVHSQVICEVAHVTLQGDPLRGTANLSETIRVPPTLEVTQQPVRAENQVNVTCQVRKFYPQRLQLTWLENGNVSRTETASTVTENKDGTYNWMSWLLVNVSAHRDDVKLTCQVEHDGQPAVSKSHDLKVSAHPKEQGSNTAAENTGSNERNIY

- EC50 (human Sirpα-V2-his): 0.094 nM
- EC50 (Cyno Sirpα L932): 0.181 nM
- IC50 (human Sirpα-V1-hFc): 5.92 nM
- IC50 (human Sirpα-V1-his [1]): 5.28 nM
- IC50 (human Sirpα-V1-his [2]): 6.14 nM
B1: humanized antibody mab14-h16 (antibody, human IgG4 S228P, kappa, V domains shown)
VH: QVQLVQSGAEVKKPGASVKVSCKASGYNFNIYWINWVRQAPGQGLEWIGNIYPSSISTNYNEKFKTRATLTVDKSTSTVYMELSSLRSEDTAVYYCARSEGTYYGGRYEGDWFGYWGQGTLVTVSS
VL: DIQMTQSPSSLSASVGDRVTITCRASQDIRNYLNWYQQKPGKAPKLLIYFTSTLHSGVPSRFSGSGSGTDFTLTISSLQPEDFATYYCQQGNTLPWTFGGGTKVEIKR
notes: hIgG4, κ
- binding result (Cyno Sirpα L939): no binding (tested: the binding signal was not detected)
